Reference: patent US20240402174A1 (Takeda / Millennium, published 2024)

T1: GII.17/1978 VLP (norovirus Hu/GII.17/C142/GF/1978)
T1 construct: also called Hu/GII.17/C142/GF/1978
T1 chain: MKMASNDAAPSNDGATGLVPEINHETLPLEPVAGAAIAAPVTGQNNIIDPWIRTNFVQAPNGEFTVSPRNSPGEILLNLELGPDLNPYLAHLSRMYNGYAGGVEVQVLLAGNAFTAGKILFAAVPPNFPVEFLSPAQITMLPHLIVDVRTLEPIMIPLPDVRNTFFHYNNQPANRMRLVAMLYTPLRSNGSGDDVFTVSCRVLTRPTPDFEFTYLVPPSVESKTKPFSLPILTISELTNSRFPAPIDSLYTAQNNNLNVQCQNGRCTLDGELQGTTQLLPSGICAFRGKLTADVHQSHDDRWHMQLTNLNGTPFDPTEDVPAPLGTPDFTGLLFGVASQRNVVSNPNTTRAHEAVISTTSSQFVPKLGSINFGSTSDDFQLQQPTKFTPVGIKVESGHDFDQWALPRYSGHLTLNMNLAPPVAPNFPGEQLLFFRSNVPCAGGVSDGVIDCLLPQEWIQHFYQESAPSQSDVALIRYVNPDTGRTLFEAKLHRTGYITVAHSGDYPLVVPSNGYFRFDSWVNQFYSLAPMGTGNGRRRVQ

T2: GII.1 VLP (norovirus Hu/GII.1/Ascension208/2010/USA)
T2 chain: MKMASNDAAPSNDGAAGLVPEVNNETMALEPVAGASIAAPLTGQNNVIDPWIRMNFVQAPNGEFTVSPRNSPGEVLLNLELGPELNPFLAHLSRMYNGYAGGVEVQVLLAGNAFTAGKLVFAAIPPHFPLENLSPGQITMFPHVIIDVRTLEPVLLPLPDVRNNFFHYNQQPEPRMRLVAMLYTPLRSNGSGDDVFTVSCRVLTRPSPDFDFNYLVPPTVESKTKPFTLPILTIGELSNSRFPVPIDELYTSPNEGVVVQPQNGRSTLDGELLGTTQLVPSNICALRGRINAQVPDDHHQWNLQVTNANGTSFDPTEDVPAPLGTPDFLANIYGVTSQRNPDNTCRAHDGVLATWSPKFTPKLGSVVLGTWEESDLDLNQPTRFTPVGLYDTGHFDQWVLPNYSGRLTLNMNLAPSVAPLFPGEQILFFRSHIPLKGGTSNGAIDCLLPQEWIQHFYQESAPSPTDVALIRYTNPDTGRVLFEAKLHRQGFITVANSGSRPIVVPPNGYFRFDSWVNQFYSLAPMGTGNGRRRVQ

T3: GII.4/Houston VLP (norovirus …, UniProt P54635 1-539)
T3 construct: also called Hu/GII.4/Houston/TCH186/2002/US
T3 chain: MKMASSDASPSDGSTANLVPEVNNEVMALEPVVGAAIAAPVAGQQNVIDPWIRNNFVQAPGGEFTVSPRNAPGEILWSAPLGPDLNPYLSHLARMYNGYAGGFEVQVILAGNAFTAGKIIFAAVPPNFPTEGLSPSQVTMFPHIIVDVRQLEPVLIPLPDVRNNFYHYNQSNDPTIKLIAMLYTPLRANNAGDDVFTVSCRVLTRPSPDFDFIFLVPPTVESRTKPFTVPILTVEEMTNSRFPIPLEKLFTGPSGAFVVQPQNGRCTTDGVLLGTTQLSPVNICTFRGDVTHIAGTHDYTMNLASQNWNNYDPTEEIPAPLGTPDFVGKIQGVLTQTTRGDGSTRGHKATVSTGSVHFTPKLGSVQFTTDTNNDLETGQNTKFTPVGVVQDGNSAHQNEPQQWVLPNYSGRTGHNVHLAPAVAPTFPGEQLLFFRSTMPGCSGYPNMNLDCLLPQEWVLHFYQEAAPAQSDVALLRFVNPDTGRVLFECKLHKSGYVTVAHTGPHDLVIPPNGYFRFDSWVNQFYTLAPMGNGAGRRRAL

T4: GI.7 VLP (norovirus Hu/GI.7/Providence191/2010/USA)
T4 construct: also called GI.7 Providence
T4 chain: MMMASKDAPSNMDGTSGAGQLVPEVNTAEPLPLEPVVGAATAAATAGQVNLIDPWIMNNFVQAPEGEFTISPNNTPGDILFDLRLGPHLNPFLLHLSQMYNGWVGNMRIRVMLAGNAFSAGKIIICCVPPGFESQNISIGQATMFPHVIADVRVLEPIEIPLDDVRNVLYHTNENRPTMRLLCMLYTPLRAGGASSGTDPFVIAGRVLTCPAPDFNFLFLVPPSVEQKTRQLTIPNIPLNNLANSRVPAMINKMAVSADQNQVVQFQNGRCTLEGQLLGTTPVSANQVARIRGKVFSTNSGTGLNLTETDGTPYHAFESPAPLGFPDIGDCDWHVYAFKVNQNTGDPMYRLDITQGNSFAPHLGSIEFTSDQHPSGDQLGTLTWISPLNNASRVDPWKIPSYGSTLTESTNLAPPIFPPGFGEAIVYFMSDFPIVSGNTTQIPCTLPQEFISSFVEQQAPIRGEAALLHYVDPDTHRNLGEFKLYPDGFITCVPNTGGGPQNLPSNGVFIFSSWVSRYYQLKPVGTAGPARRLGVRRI

T5: GI.6 VLP (norovirus Hu/GI.6/TCH-099/USA/2003)
T5 construct: also called GI.6 USA
T5 chain: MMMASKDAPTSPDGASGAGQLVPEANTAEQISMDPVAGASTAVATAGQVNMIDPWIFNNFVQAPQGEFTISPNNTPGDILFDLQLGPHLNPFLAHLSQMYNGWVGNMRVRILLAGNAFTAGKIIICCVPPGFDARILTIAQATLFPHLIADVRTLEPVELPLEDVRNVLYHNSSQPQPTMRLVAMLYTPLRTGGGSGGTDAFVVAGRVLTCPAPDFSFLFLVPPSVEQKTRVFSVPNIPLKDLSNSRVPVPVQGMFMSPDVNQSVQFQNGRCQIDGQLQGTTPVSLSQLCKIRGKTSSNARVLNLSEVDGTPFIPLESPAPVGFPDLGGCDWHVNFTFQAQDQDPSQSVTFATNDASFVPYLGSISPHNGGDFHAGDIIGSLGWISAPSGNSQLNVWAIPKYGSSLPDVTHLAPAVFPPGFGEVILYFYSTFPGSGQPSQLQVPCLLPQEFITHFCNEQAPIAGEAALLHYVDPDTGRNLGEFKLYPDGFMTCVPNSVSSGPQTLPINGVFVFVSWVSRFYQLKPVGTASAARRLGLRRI

B1: human mAb 1431 (antibody, V domains shown)
VH: QVQLVQSGGGLVQPGGSLRLSCAASGFAFSNHGMHWVRQAPGKGLEWLSYISGSTGAIHYANSVKGRFTISRDNARNSLDLQMNSLGDEDTAVYYCARDGPRPDGTGYAGPSNDYWGQGTLVSVSS
VL: EIVLTQSPASLSLSPGERATLSCKASRSISIYLAWYQQKPGQAPRLLIYDASYRAIGIPARFSGSGSGTDFTLTISNLEPEDFAVYYCQHRSSWPALTFGGGTKVEI
notes: also called A1431
B2: human mAb 1431 (antibody, V domains shown)
VH: B1 VH
VL: B1 VL
notes: also called A1431

Assays:
GII.17/1978 VLP = target: T1, GII.17/1978 VLP; experiment: multiplex microsphere immunoassay
GII.1 VLP = target: T2, GII.1 VLP; experiment: multiplex microsphere immunoassay
GII.4/Houston VLP = target: T3, GII.4/Houston VLP; experiment: PGM blockade assay, serially diluted mAb
Method: Plates were washed 3 times with PBST before use. […] The mixture was transferred to the PGM-coated plates including VLP-only controls and incubation carried out for 1 h at 22° C. or 37° C. Following 3 washes with PBST, detection antibody specific for the corresponding VLP was added and the plates were incubated at room temperature for 1 h and then washed 3 times with PBST. […] Following 3 washes, enzyme substrate (ABTS, KPL) was added and allowed to react for 12 min at room temperature. ABTS Peroxidase Stop Solution (KPL) was then added and plates were read at a wavelength of 450 nm in a Molecular Devices plate reader using SoftMax Pro Software (Molecular Devices, Downingtown, PA, USA) to obtain the Optical Density (GD) of each well.
The following, day corresponding dilutions incubated with VLPs were transferred to the PGM-coated plates. The OD data was curve fit and blocking titers were calculated as the supernatant dilution interpolated at 1/2 the maximum OD for the plate. The blocking titers represent the supernatant dilution that produces a 50% reduction in VLP binding to PGM. The maximum OD for the plate was calculated from the VLP only control.

GI.7 VLP = target: T4, GI.7 VLP; experiment: multiplex microsphere immunoassay
GI.6 VLP = target: T5, GI.6 VLP; experiment: multiplex microsphere immunoassay

Binder | binding result (GII.17/1978 VLP) | binding result (GII.1 VLP) | blocking titer (GII.4/Houston VLP) | binding result (GI.7 VLP) | binding result (GI.6 VLP)
B1 | no binding | no binding | 12100 | – | –
B2 | – | – | – | no binding | no binding
